According to article PMC3017119, “Structural Basis for the Recognition of Cellular mRNA Export Factor REF by Herpes Viral Proteins HSV-1 ICP27 and HVS ORF57” (PLoS Pathogens, 2011):

B1: unnamed (parent)
chain 1: MATDIDMLIDLGLDLSDSDLDEDPPEPAESRRDDLESDSSGECSSSDEDMEDPHGEDGPEPILDAARPAVRPSRPEDPGVPSTQTPRPTERQGPNDPQPAPHSVWSRLGARRPSCSPEQHGGKVARLQPPPTKAQPARGGRRGRRRGRGRGGPGAADGLSDPRRRAPRTNRNPGGPRPGAGWTDGPGAPHGEAWRGSEQPDPPGGQRTRGVRQAPPPLMTLAIAPPPADPRAPAPERKAPAADTIDATTRLVLRSISERAAVDRISESFGRSAQVMHDPFGGQPFPAANSPWAPVLAGQGGPFDAETRRVSWETLVAHGPSLYRTFAGNPRAASTAKAMRDCVLRQENFIEALASADETLAWCKMCIHHNLPLRPQDPIIGTTAAVLDNLATRLRPFLQCYLKARGLCGLDELCSRRRLADIKDIASFVFVILARLANRVERGVAEIDYATLGVGVGEKMHFYLPGACMAGLIEILDTHRQECSSRVCELTASHIVAPPYVHGKYFYCNSLF
chain 2: not shown

Variants of: B1
Assay: co-immunoprecipitation with densitometry of Western blot
Conditions: 293T cells transfected with GFP-tagged ICP27 and its mutants, IP with polyclonal GFP-specific antibody and Protein A agarose, 3 independent experiments, read off a plot, scale: relative binding normalised against GFP control

Variant	response
chain 1 W105A	0.32
chain 1 R107A L108A	0.37
chain 1 W105A R107A L108A	0.3
